Patent publication US10654917B2, “Antibody molecules and peptide delivery systems for use in alzheimer's disease and related disorders” (TECHNOPHAGE, INVESTIGAÇĀO E DESENVOLVIMENTO EM …, priority 2015, dated 2020)

B1: #27in: anti-BAP42 sdAb, SEQ ID NO: 4 (antibody, V domains shown)
VL: ELVLTQTPSSVSAAVGGTVTINCQASQSVSNRLAWYQQKPGQPPKLLIYGASRLESGVPSRFRGSGSGTEFTLTISGMKAEDAATYYCQSCYYSVGVTFGAGTNVEIK

Experiments:
[1] = system: in vitro model of the BBB (bEnd3 cells); test: Transmigration of radiolabelled peptides across in vitro BBB model; assay type: in vitro ADME
Procedure: Using the same in vitro model of the BBB described above, peptides labelled with technetium and gallium were tested for the ability to cross endothelial barrier. For each peptide, bEnd3 cells cultured on “tissue culture inserts” were incubated with 5 ρCimL^−1-labelled peptide for different incubation times: 15 min, 5 h and 24 h. As a control, the model without cells was used (Control no cells) or (Filters) and compared to models with cells (BBB) or (Cells).
FIGS. 21A-21F show the percent activity of the radioisotope technetium-labelled peptides at the apex and base after 5 hours of incubation with the in vitro model described above, using the BBB-model or no cells (as a control); and values were obtained from two independent assays. […] Moreover, the results indicated promising candidates. Specifically, for each of pepH1 and pepH3, there was an overpass of 50% in the control, compared with only 20% in the presence of a cell barrier. The translocation of pepH2 was not observed in either the control nor in the BBB model.
Results for the incubations of 15 minutes, 5 hours, and 24 hours are shown together in FIGS. 22A-22F. That is, FIGS. 22A-22F show the percent activity of the radioisotope technetium-labelled peptides at the apex and base after 15 minutes, 5 hours, and 24 hours of incubation with the in vitro model described above, using the BBB-model or no cells (as a control); and values were obtained from two independent assays. Differences again were observed, confirming the integrity of the barrier, as well as identifying peptides that crossed the barrier. […] PepR′ thus was excluded from further tests.
(§1) Table 9 summarizes results regarding uptake (internalization) and cellular interaction, as well as transmigration across an in vitro model for BBB, for peptides labelled with technetium and gallium, after 15 minutes, 5 hours, and 24-hours of incubation, based on percent recovery of radiopeptide. The Table lists the peptides, providing each peptide's name, % BBB transmigration, % cellular interaction, and % internalized, each after […], 5 hours, and 24 hours of incubation.

[2] = Features of peptides: isoelectric point, charge; assay type: physicochemical; conditions: original peptide
Description: Table 7 lists each peptide's name, isoelectric point (PI), charge (number of positive residues), calculated mass (in Da), and ion found; as well as the name, calculated mass, and found ion for the corresponding conjugate; and also retention times in HPLC and the partition coefficient (log Po/w). These values allowed the determination of the hydrophilic nature of peptides, where pepH1 and pepH4 were identified as the most hydrophilic peptides.

[3] = system: bEnd3 cells; test: Uptake test: cellular interaction (acid wash) and internalization (lysate); assay type: cell-based
Procedure: In addition to testing models of BBB, an uptake test was performed to determine the internalizing ability of the candidate peptides. BEnd3 cells were cultured in 24 well plates. At each time point, the medium containing the peptide, which had not interacted with the cells, was collected. In the next step, the cells were washed with an acidic buffer that releases peptides more strongly bound to the cell membrane (sample acid wash). Finally, the cells were lysed to release internalized peptides and to quantify the activity inside the cells. Results are showing in FIGS. 23A-23E.
FIGS. 23A-23E show percent activity of the radioisotope technetium-labelled peptides in the media, wash buffer (acid wash) and lysate, after 15 minutes, 5 hours, and 24 hours of incubation with bEnd3 cells; and values were obtained from two independent assays. […] PepM′, as well as showing high transmigration (about 50%), also appeared to become internalized and accumulated within the cells (about 13% of radioactivity in the lysate).
as §1

[4] = system: bEnd3 cells; test: MTT cell viability assay; assay type: cell-based; conditions: for effect on cell viability: 0.1-100 μM (pepM′ 0.1-50 μM), 24 hours; for cell death: concentration below 40 μM, peptide in DMSO
Procedure: To test possible toxicity of selected peptides to BBB cells, 5×10^4 bEnd3 cells were cultured in 96-well plates, at 100 μL/well, and incubated for 24 hours. The peptides then were added at concentrations of 0.1-100 μM, with the exception of pepM′ (which was added at concentrations of 0.1-50 μM). As a control providing 100% of viability, a well with serum-free media was included.
After 24 hours of incubation, a MTT assay was performed, which is a colorimetric assay for assessing cell metabolic activity. A MTT solution at 5 mg/mL in PBS was added to each well and incubated for 2 hours. After this period, the solution was removed and DMSO added to solubilize violet crystals formed. Absorbance was measured at 540 nm. The viability percentage [Absorbancepeptide-treated cells/Absorbanceuntreated-cells)*100] was calculated and IC50 values were calculated from three independent assays.
As FIGS. 24A-24E show, the selected peptides have no effect on cell viability, specifically, there was no observable nor measurable effect using the assay described.

[5] = Biodistribution of technetium-labelled peptides; assay type: in vivo, CD1 mice
Procedure: To evaluate the capacity to cross the BBB in vivo, the selected peptides, pepH1 and pepH3, were analyzed for biodistribution in CD1 mice. The peptides were labelled with technetium at a final concentration of 8.5×10^−5 M and diluted in PBS. CD1 mice were injected (iv injection, tail vein). The mice were sacrificed by cervical dislocation after 5 and 60 minutes of incubation. The tissues of interest were dissected and washed to remove excess blood, weighed, and measured for radioactivity. Technetium radioactivity of the different peptides was measured for different organs.
Initial results are presented in Table 11, where “% I.A. refers to the “% injected activity”, that is, the amount of radioactivity measured in a given organ compared to the total originally injected.
The biodistribution studies were repeated, using higher doses of each peptide, specifically, a one hundred fold increase, as well as using PepH2 as a negative control, and allowing incubation for 2 minutes and 60 minutes. Tissue biodistribution profile in percentage of injected radiopeptide activity per gram of tissue/organ was measured and results are presented in Table 12.

[6] = design: species or system CD1 mice; conditions: mouse, in vivo
Procedure: The different antibody-peptide constructs were used in biodistribution assays, and results compared with the biodistribution of the respective DEN2C peptides (pepH1, pepH2, pepH3, and pepM′, chemically synthesized). […] After expression and purification, the sdAbs and sdAb-peptide constructs were conjugated to technetium (^99Tc) and a biodistribution assay was performed, as previously described.
Tables 14-16 show the biodistribution of different anti-BAP42 sdAbs and constructs thereof with different peptides (“pepH3”).

[7] = 99mTc, 24 hours, listed as PepHM′

Molecule | BBB transmigration ([1]; 99mTc, 24 hours) | Charge (number of positive residues) [2] | PI (isoelectric point) [2] | BBB transmigration ([1]; 99mTc, 0.25 hours) [%] | BBB transmigration ([1]; 99mTc, 5 hours) [%] | BBB transmigration ([1]; GaCl3, 0.25 hours) [%] | BBB transmigration ([1]; GaCl3, 5 hours) [%] | BBB transmigration ([1]; GaCl3, 24 hours) [%] | Cellular interaction ([3]; 99mTc, 0.25 hours) [%] | Internalization ([3]; 99mTc, 0.25 hours) [%] | Cellular interaction ([3]; 99mTc, 5 hours) [%] | Internalization ([3]; 99mTc, 5 hours) [%] | Cellular interaction ([3]; 99mTc, 24 hours) [%] | Internalization ([3]; 99mTc, 24 hours) | Cellular interaction ([3]; GaCl3, 0.25 hours) [%] | Internalization ([3]; GaCl3, 0.25 hours) [%] | Cellular interaction ([3]; GaCl3, 5 hours) [%] | Internalization ([3]; GaCl3, 5 hours) [%] | Cellular interaction ([3]; GaCl3, 24 hours) [%] | Internalization ([3]; GaCl3, 24 hours) [%] | also measured
KEIGRMLNILNRRRR [PepR′] | more limited in crossing the barrier |  |  |  |  |  |  |  |  |  |  |  |  |  |  |  |  |  |  |  | 
KSKAINVLRGFRKEIGRMLNILN [PepH4] |  | 6 | 11.7 | 3.30 ± 0.5 | 30.08 ± 1.6 | 0.93 ± 0.1 | 16.60 ± 1.1 | 60.79 ± 2.6 | 2.06 ± 0.3 | 0.17 ± 0.0 | 10.10 ± 0.1 | 1.53 ± 0.0 | 10.23 ± 0.8 | 2.83 ± 0.2% | 4.06 ± 0.2 | 0.26 ± 0.0 | 3.00 ± 0.1 | 0.78 ± 0.0 | 3.82 ± 0.1 | 1.55 ± 0.1 | where the radiopeptide is found in the uptake test (media, acid wash, lysate) ([3]; 99mTc): mainly remained in the incubation medium
KLFMALVAFLRFLT [PepH2] | 9.32 ± 2.5% | 2 | 11 | 0.79 ± 0.7 | 5.21 ± 3.3 | 0.33 ± 0.1 | 4.06 ± 0.3 | 13.51 ± 0.7 | 1.60 ± 0.3 | 2.15 ± 1.2 | 5.95 ± 3.0 | 24.8 ± 2.0 | 2.20 ± 0.4 |  | 0.77 ± 0.1 | 0.84 ± 0.1 | 1.48 ± 0.1 | 6.97 ± 0.3 | 1.16 ± 0.1 | 9.24 ± 1.2 | effect on cell viability [4]: small decrease in viability; cell death [4]: no cell death; BBB transmigration ([1]; 99mTc, 5 hours, listed as pepH2): not observed; BBB transmigration ([1]; 99mTc, 24 hours, listed as pepH2): 9%; radioactivity levels in the brain ([5]; 80 μg, after 60 minutes): 0.2%; radioactivity in the brain ([5]; 140 μg (pepH1, pepH3) or 80 μg (pepH2), 2 min): 0.37%; excreted ([5]; 140 μg (pepH1, pepH3) or 80 μg (pepH2), after 60 min): 12.7%; brain uptake ([5]; after 2 min): rapid brain uptake; brain washout ([5]; mouse, in vivo): brain washout was slower
LVAFLRFLTIPPTAGILKRW [PepM′] | about 50% | 3 | 12.0 |  |  |  |  | 47.31 ± 1.2 |  |  |  |  | 8.32 ± 1.9 | about 13% |  |  |  |  | 2.23 ± 0.1 | 3.68 ± 0.0 | effect on cell viability [4]: small decrease in viability; cell death [4]: no cell death; BBB transmigration [1, 7]: 53.47 ± 3.1%; BBB transmigration ([1]; 99mTc, 24 hours, listed as pepM): ~50%; Internalization [3, 7]: 12.81 ± 2.0%
B1 |  |  |  |  |  |  |  |  |  |  |  |  |  |  |  |  |  |  |  |  | factor by which washout from the brain is slowed on linking to delivery peptide pepH3 [6]: about 2; factor of increase of presence in the brain on linking to delivery peptide pepH3 [6]: about 6
